Measured values: the supplement of paper PMC9170038

Test system: K4 kissing-loop RNA reporter
Experiment: apparent KD of K4 kissing-loop reporter; higher = weaker reporter binding
Settings: Eterna round: R107
Experimental: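 RNA-MaP round R107: designed RNA switches with theophylline, tryptophan, arginine or FMN aptamers are transcribed on-chip within common flanks. They are titrated with a labelled K4 kissing-loop RNA reporter in RNA-MaP buffer (100 mM Tris pH 7.5, 80 mM KCl, 4 mM MgCl2), without ligand or with the indicated ligand. Median apparent KD per design.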

[1] = input ligand: theophylline 20 uM
[2] = input ligand: tryptophan 2.4 mM
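Note: bound reporter read as fluorescence of individual clusters on recovered sequencing chips by microscopy, with normalized cluster intensities fitted with a binding model.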

Sequence | apparent KD of K4 kissing-loop reporter (input ligand: FMN 200 uM) | apparent KD of K4 kissing-loop reporter (input ligand: arginine 13.2 mM) | apparent KD of K4 kissing-loop reporter (input ligand: none) | apparent KD of K4 kissing-loop reporter [1] | apparent KD of K4 kissing-loop reporter [2]
GUUACGCAUGGAAGGAGCGCAGGCUCAACAAAUAGCUCAGUGAUGUUGAGCAUAUUAAUUCUGCAGGUAGGUCGCCAUGUGUAAC [Ex Arginine B K4 25] | 531 nM | 491 nM | 551 nM | 536 nM | 508 nM
GUUACGCAUGGAAGGAGCGCGAAUUUAAUUAGUGAGUGAUGUUCACAUAAAAUGUAUAAUACGCAGGUAGGUCGCCAUGUGUAAC [whbob_Ex_Arginine_B_2th163] | 81.9 nM | 84 nM | 77.2 nM | 85.7 nM | 81.3 nM
GUUGAUCAUGGAAGGAGCGCCCAUUGUCGACACGAGUGAUGUUCGUGUCGUUAAUUAUGAGGGCAGGUAGGUCGCCGUGUGCUUU [Soqugebi] | 144 nM | 103 nM | 130 nM | 115 nM | 128 nM
UAAAUAAAAUCCUAGUGAUGUUAGGAUAUGUAGGAUAUCGGGAUACCGAGAAGGACAGAAGGAGGAGUGAUGUUCCUCAAUAAAU [FmnAX 30 #DoubleAptamer #DoubleK4 #OpenEnded] | 72 nM | 72.1 nM | 59.3 nM | 74.5 nM | 59.5 nM
UAAGACAUGAAAGGAUAUCCGAUAUGGAGCCUUUAGUGAUGUUAGGAGCUAGCCGUAGACAAGAUCGGAGAAGGUUCAACCCACA [theeternabot_sameState_KL_FMN_B_13] | 787 nM | 506 nM | 646 nM | 705 nM | 640 nM
UAAUAUCCGUCGGCCGCCACUCACUAGUGAUGUUAGAGGAGUGAUGUUCCACGAGUGAUGUUCGAGAGGACCGGGACGGACGAUG [7th] | 75.1 nM | 60 nM | 65.3 nM | 56.6 nM | 54.9 nM
UAAUCUAACGAGAGUGAUGUUCUCGUCACAGAGGAUAUACGAUUUAGUAGAAGGCUGUUGGAUUCGCUUAAUGAUGACUAGAUUA [FMN A SS t1] | 242 nM | 196 nM | 223 nM | 232 nM | 205 nM
UACUAUAUUCUGUCGUUUUUAUUAGUUUGUCAGGAUAUCGUUUAUUCGAGAAGGGACACUAUCUAGUGAUGUUAGAUAUUUCUUU [JR_Nu3_ExcFMNA_Sub030] | 77.9 nM | 102 nM | 92.7 nM | 93.2 nM | 72.9 nM
UAGAAGAGAAGCGAUACCAGCGAAUGAAGAAGAUGAUGAAGCCAGUGAUGUUGGAAAGAACGCCCUUGGCAGCGCAAGAGAAGAU | 119 nM | 163 nM | 107 nM | 175 nM | 83.2 nM
UAGAUAAUGUAAGAUUAUGAUAAUUGGGAAGGAGCGCGGAAAUUCGCAGGUAGGUCGCCCUAUAAAGUAGUACGAGUGAUGUUCG [6.)] | 217 nM | 205 nM | 281 nM | 305 nM | 261 nM
UAGGGCAUCGCAGGAUAUCCUGCUUAACGUUGGAUUCCAGUGAUGUUGGAAAGUCGGCCUAGGGUAGGAGAAGGGCGAACUUGAA [Maxean] | 172 nM | 157 nM | 194 nM | 195 nM | 98.1 nM
UAUACGAAGCAGUGAUGUUGCUUAUGAGAAGGAGCGCACGAAAGUGCAGGUAGGUCGCUCAGCCAUGUGGACGAAAACGUCCACA [whbob_SS_Arginine_A_sa110] | 108 nM | 130 nM | 109 nM | 137 nM | 93 nM
UAUAGAGUGACGGCCGCCACUAUUGUGAUUUAAUUGUUUGAGUGAUGUUUUGAUGUUUGAUUUUGUAGGACCGGGUUAUAUGUUA [zdzzmullin] | 959 nM | 718 nM | 987 nM | 793 nM | 788 nM
UAUAUAGUGAUGUUAUAUGGGAAGGAGUUACGAGGACCGGUACGGCCGCCACUCGAAACGAGUGAGGAUUUGGGAGAUUGGGUUU [SSTryptA.S] | 333 nM | 211 nM | 206 nM | 208 nM | 232 nM
UAUGAAGGUGGAGGAUAUUGAUUGAGCCUUGGUCAGGAGUGAUGUUCCGGGAAGCCUUGGGUUCAUCGAGAAGGCCAAGGAUAGU [#09 K4 FMN B Same State] | 151 nM | 209 nM | 221 nM | 274 nM | 232 nM
UAUUAAUUGUCAGGAUAUCGUAUUCGAGUGAUGUUCGUAUAUCGACGAUAGUCGAUAUUAUCUAUACGAGAAGGGACAUUAUUUA [JR_SSFMNB_Sub006] | 418 nM | 334 nM | 477 nM | 341 nM | 379 nM
